Test results: paper PMC4773404

How the values were obtained:
Assay in all cases: SPR; Biacore T200; receptor domains amine-coupled to CM5-S Series chips; analytes 0-20 nM flowed over; 10 mM HEPES, 150 mM NaCl, 3 mM EDTA, 0.05% surfactant P20, pH 7.4; double-referenced; 1:1 Langmuir fit
[1] = molecular target: SorCS2 luminal domain (LD)
[2] = molecular target: p75NTR extracellular domain (p75NTR ECD) (UniProt P08138)
[3] = molecular target: sortilin luminal domain (LD)

p75NTR extracellular domain (p75NTR ECD), sequence (P08138 29-250): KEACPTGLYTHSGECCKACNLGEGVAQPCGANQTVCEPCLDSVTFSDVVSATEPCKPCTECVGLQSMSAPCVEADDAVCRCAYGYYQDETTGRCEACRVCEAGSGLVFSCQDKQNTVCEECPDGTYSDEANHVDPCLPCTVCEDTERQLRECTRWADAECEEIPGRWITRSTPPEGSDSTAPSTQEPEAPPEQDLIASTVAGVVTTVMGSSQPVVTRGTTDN

Row | Kd [1] [nM] | koff [1] [s⁻¹] | kon [1] [M⁻¹ s⁻¹] | Kd [2] [nM] | koff [2] [s⁻¹] | kon [2] [M⁻¹ s⁻¹] | Kd [3] [nM] | koff [3] [s⁻¹] | kon [3] [M⁻¹ s⁻¹] | Substance
1 | 2.23 | 0.00453 | 2.14e+06 | 2.31 | 0.00325 | 1.55e+06 | 3.83 | 0.00504 | 1.56e+06 | human proBDNF Met66, furin cleavage-resistant (FCR) (natural protein)
2 |  |  |  | 0.62 | 0.00251 | 4.44e+06 | 6.44 | 0.0217 | 3.8e+06 | brain-derived neurotrophic factor (BDNF) (ligand)
3 | 2.23 | 0.004 | 1.79e+06 | 2.42 | 0.00394 | 1.88e+06 | 2.9 | 0.00746 | 2.48e+06 | human proBDNF Val66, furin cleavage-resistant (FCR) (natural protein)
